Laboratory results reported in US20110229491A1 (published 2011).

Biological target: T1, MCM5:YFPC fusion protein (Arabidopsis, UniProt O80786 1-727)
T1 construct: BiFC construct expressed in tobacco leaf epidermal cells; not shown: YFPC: fragment with amino acid residues 155-238 of YFP (plasmid pUC-SPYCE)
T1 sequence (looked up): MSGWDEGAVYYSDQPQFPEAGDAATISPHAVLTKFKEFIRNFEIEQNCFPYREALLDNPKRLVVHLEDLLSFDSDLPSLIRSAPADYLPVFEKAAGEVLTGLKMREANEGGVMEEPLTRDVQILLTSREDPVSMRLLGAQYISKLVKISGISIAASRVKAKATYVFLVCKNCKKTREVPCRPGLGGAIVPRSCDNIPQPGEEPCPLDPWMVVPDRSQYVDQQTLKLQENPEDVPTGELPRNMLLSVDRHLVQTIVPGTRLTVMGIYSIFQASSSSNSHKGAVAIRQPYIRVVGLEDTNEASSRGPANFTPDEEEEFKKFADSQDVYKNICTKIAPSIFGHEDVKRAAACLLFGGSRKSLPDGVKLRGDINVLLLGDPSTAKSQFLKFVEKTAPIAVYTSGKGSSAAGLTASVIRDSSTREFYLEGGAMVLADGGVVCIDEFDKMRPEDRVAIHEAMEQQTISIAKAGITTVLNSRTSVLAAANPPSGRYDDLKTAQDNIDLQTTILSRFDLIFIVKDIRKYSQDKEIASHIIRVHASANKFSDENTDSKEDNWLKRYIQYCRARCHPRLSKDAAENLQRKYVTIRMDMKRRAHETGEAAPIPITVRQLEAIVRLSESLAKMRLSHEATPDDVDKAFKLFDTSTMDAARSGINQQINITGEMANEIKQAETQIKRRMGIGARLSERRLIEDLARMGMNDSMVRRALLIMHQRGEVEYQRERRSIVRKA
Test: BiFC in tobacco leaf epidermal cells
Description: Full-length open reading frames of ETG1 and MCM5 were transferred into the pH7FWG2 destination vector (Karimi et al., 2002) by LR recombination reaction, resulting in ETG1:EGFP and MCM5:EYFP fusion proteins, respectively. BiFC assay was performed as described by Walter et al. (2004). The coding region of ETG1 was amplified with 5′-[…]-3′ (SEQ ID NO:28) and 5′-[…]-3′ (SEQ ID NO:29) primers, and cloned via BamHI-XhoI into the plasmid pUC-SPYNE (Walter et al., 2004), resulting in the plasmid expressed as the ETG1:YFPN fusion protein; the coding region of MCM5 was also obtained with 5′-[…]-3′ (SEQ ID NO:30) and 5′-[…]-3′ (SEQ ID NO:31) primers, and cloned via SpeI-SalI into the plasmid pUC-SPYCE (Walter et al., 2004) to give rise to the plasmid expressed as the MCM5:YFPC fusion protein.
The Agrobacterium strains containing both BiFC constructs were co-infiltrated into tobacco leaves. Epidermal cell layer of tobacco leaves were assayed for fluorescence using confocal laser scanning microscope (Zeiss) two to four days after infiltration. […] As expected, no fluorescence was detected when any combination with empty vectors was introduced into tobacco cells (FIG. 5, Panel C; ETG1-YFPN and YFPC, YFPN and MCM5-YFPC).

B1: ETG1:YFPN fusion protein (other, UniProt Q501D5 1-589, looked up)
chain: MGGPAYDCLTNPLGAVRFSFVNALSSGYDPASSVGKDWGVVDLFRHYFSDESAISQVPILDSSSIKWVQPKTLVRFRGMIQDMLGNEFYAGAYKDDSTWRTNKYSDVSQFPEGSSTEIQVWERRLLYCVPVPGKNQWTECSSQELKNRFLDLTGQNREKRVRVDEEMTDSMDSSTLEAGRNGSPFKKMKVGEATSSASESQVPQTSGIPPATSADSLPCLVKIYDSPESDLKLNDVVEFLGVLTFDPIVMMDTDTLDENSDALSEAESVQMPSGKVPRLHCLIHRKLETQHFLHGSSLLPEPKSPQIFKEIRESLMKYLTGLLGNDHIAAQFLLLHLLSKVHGRVDNVAVGKLSLNLIHLNKESMSIFGTQLSGALKSLLPFTQSIPLTIEYLNTASFGPKKDYGINRLMPGVLQIADGTHLILDETELQPGTLNSVGVENANLLKNLLECQKVEYDFQYYKMEMATDVQMLIFSEGKSNIMPADLVLPLQPSQVNSLEVITPETAETWRCYLATCKSLSHSIGQELQQVVENDLVAARQTDRSLGSQDLSRLLTMARMMSVSYGETTLSLEHWQMVLELERLRKERLK
notes: range 1-589;range 1-154; BiFC construct expressed in tobacco leaf epidermal cells; not shown: YFPN: fragment with amino acid residues 1-154 of YFP (plasmid pUC-SPYNE)
B1: binds.
